Results taken from patent US20190202925A1 (OPI VI IP HOLDCO, published 2019).

Tests used:
soluble human TNFR2 [1] = molecular target: T1, soluble human TNFR2 (human, UniProt P20333 23-257); test: competition ELISA: plate-bound soluble TNFR2, antibody titrated against constant biotinylated TNFα, streptavidin-HRP, A450
T1 construct: also called soluble TNFR2
T1 sequence (looked up): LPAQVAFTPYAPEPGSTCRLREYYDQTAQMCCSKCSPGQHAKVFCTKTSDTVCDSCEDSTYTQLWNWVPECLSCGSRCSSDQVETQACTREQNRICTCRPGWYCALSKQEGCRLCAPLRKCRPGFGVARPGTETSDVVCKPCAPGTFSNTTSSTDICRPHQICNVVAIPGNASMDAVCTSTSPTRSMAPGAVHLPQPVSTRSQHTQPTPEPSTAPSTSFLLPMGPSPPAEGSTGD
Source text: (§1) Soluble human TNFR2 was coated on Nunc-Immuno™ plates. […] IC₅₀ values are reported in nM.
(§2) IC₅₀ values are reported in nM.

[2] = molecular target: T2, monomeric human TNFR2 extracellular domain (human, UniProt P20333 23-257); test: BLI (Octet Red 96), antibody captured on Fc biosensor, monomeric TNFR2 ECD in solution, 1:1 model
T2 construct: extracellular domain; Analyte in the Octet experiments; also called human TNFR2 ECD
T2 sequence (looked up): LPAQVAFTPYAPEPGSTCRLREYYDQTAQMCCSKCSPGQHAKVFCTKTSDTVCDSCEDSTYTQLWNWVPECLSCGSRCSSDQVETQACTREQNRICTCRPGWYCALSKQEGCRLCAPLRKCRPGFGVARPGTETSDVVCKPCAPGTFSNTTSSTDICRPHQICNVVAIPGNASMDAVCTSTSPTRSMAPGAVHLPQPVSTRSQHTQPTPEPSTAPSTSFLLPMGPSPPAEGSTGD
Description: (§3) Analysis of binding to the human and cynomolgus TNFR2 ECD was performed using an Octet Red 96 Instrument™ (ForteBio). […] The experiments were performed using five steps: (1) baseline acquisition (60 s); (2) antibody loading on to anti-human or anti-mouse Fc biosensors (120 s); (3) second baseline acquisition (60 s); (4) association of interacting monomeric human or cynomolgus TNFR2 ECD protein for kₒₙ measurement (120 s); and (5) dissociation of interacting monomeric human or cynomolgus TNFR2 ECD for koff measurement (240-3600 s).
(§4) The interacting monomeric human or cynomolgus ECD was used at 5-6 concentrations of a 3-fold concentration series. The data were analyzed using Octet Data Analysis Software 9.0™ (ForteBio) and fit to the 1:1 binding model. The equilibrium dissociation constants (Kd) were calculated by the ratio of […].

[3] = molecular target: T3, monomeric cynomolgus TNFR2 extracellular domain (cynomolgus monkey, UniProt A0A2K5VET2 132-366); test: as above
T3 construct: extracellular domain; Analyte in the Octet experiments; also called cynomolgus TNFR2 ECD; Cyno TNFR2
T3 sequence: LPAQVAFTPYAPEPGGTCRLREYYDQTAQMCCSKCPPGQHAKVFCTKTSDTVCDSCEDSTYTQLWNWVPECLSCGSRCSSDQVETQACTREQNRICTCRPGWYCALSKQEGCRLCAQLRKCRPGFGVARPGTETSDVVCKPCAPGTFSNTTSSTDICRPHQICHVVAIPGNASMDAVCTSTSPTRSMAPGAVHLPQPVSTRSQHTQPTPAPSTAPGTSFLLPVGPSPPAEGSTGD
Description: as §3, §4

soluble human TNFR2 [4] = molecular target: T1, soluble human TNFR2; test: competition ELISA (FIG. 2), plate-bound soluble human TNFR2, constant biotinylated TNFα as competitor
Source text: as §1

human TNFR2 on cells [5] = molecular target: T4, human TNFR2 on cells (human, UniProt P20333 23-461); test: cell-based or functional assay
T4 sequence (looked up): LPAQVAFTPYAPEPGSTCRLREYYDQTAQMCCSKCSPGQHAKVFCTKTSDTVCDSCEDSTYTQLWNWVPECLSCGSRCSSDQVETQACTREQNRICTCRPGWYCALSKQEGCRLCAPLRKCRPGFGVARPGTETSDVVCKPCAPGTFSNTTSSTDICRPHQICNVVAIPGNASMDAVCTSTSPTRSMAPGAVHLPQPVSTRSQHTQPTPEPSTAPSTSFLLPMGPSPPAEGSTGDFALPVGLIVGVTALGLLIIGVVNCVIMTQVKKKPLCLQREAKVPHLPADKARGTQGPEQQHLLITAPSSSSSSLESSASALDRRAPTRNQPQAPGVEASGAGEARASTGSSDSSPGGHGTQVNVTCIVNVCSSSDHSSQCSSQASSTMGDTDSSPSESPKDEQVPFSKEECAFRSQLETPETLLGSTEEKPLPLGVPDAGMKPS

[6] = molecular target: T2, monomeric human TNFR2 extracellular …; test: BLI (Octet Red 96), Human TNFR2 Kd (1-1)
soluble cynomolgus TNFR2 [7] = molecular target: T5, soluble cynomolgus TNFR2 (cynomolgus, UniProt A0A2K5VET2 132-366); test: competition ELISA: plate-bound soluble cynomolgus TNFR2, competitor biotinylated TNFα, streptavidin-HRP, A450
T5 sequence: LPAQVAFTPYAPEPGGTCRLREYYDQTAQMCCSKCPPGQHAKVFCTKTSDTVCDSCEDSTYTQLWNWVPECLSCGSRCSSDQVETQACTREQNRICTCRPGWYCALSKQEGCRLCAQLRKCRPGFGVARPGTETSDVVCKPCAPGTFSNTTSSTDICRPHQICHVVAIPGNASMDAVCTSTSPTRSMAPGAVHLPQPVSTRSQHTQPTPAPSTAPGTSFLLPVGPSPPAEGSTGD
Description: (§5) Soluble human TNFR2 (Sino Biological, 10417-H08H) or cynomolgus TNFR2 (Sino Biological, 90102-C08H) was coated on Nunc-Immuno™ plates at 0.1 μg/ml, 0.5 ug/ml, 1 μg/ml, and 5 μg/ml. […] Plates were developed using TMB and stopped with 3 M HCl.

soluble human TNFR2 [8] = molecular target: T1, soluble human TNFR2; test: competition ELISA: plate-bound soluble human TNFR2, competitor biotinylated TNFα; IC50 relative to unlabelled TNFα = 1.00
Description: as §5, §2

soluble cynomolgus TNFR2 [9] = molecular target: T5, soluble cynomolgus TNFR2; test: competition ELISA, plate-bound soluble cynomolgus TNFR2, biotinylated TNFα as competitor
Description: as §5, §2

soluble cynomolgus TNFR2 [10] = molecular target: T5, soluble cynomolgus TNFR2; test: competition ELISA: plate-bound soluble cynomolgus TNFR2, competitor biotinylated TNFα; IC50 relative to unlabelled TNFα = 1.00
Description: as §5, §2

soluble human TNFR2 [11] = molecular target: T1, soluble human TNFR2; test: competition ELISA, plate-bound soluble human TNFR2, biotinylated TNFα as competitor
Description: as §5, §2

[12] = molecular target: T6, cynomolgus TNFR2 on cells (cynomolgus); test: flow cytometry on cynomolgus PBMC, antibody at 10 ug/mL, anti-human Fc-PE secondary
T6 construct: whole, on cells; also called cynomolgus TNFR2 on CD4+ and CD8+ T cells
Description: Cynomolgus peripheral blood mononuclear cells (PBMCs) from two independent donors were isolated by diluting whole blood (SNBL USA) 1:1 in PBS (Lonza), layering over Ficoll-Paque Plus (GE Healthcare), and centrifuging for 35 minutes at 400×g. The PBMC fraction was removed, washed 3 times in 2% FBS PBS and counted. 0.3×10⁶ PBMC were resuspended in Fixable Viability Stain 575V (BD) diluted 1:1000 in PBS and incubated for 10 minutes. PBMC were then washed twice in PBS to remove residual viability stain, resuspended in Horizon Brilliant Stain Buffer (BD) with 10 uL per test of human Fc receptor binding inhibitor (eBioscience), and incubated on ice for 20 minutes to block Fc receptors. […] PBMC were incubated 20 minutes on ice and then washed three times with 2% FBS PBS. To visualize TNFR2 chimeric antibody binding, PBMC were resuspended in goat anti-human Fc-PE F(ab′)₂ secondary reagent (Jackson ImmunoResearch) diluted 1:200 in 2% FBS PBS and incubated on ice for 20 minutes. Cells were then washed three times in 2% FBS PBS and resuspended in 200 uL 2% FBS PBS for flow cytometry analysis using a BD FACS Celesta instrument and FACS Diva software. T cells were analyzed for chimeric TNFR2 binding by gating on viable cells defined as lymphocytes using forward and side scatter and as T cells by anti-CD3 staining. CD4⁺ and CD8⁺ subsets were identified using commercial specific antibody conjugates.

human TNFR2 on cells [13] = molecular target: T4, human TNFR2 on cells; test: flow cytometry on human PBMC, antibody at 10 ug/mL, anti-human Fc-PE secondary
Description: The following day 0.3×10⁶ PBMC were counted and washed with PBS (Lonza). PBMCs were resuspended in Fixable Viability Stain 575V (BD) diluted 1:1,000 in PBS and incubated for 10 minutes. PBMCs were then washed twice in PBS to remove residual viability stain. PBMCs were then resuspended in Horizon Brilliant Stain Buffer (BD) with 10 uL per test of human Fc receptor binding inhibitor (eBioscience) and incubated on ice for 20 minutes to block Fc receptors. […] PBMCs were incubated 20 minutes on ice and then washed three times with 2% FBS PBS. To visualize TNFR chimeric antibody binding, PBMCs were resuspended in goat anti-human Fc-PE F(ab′)₂ secondary reagent (Jackson ImmunoResearch) diluted 1:200 in 2% FBS PBS and incubated on ice for 20 minutes. Cells were then washed three times in 2% FBS PBS and resuspended in 200 uL 2% FBS PBS for flow cytometry analysis using a BD FACS Celesta instrument and FACS Diva software. T cells were analyzed for chimeric TNFR2 binding by gating on viable cells defined as lymphocytes using forward and side scatter and as T cells by anti-CD3 staining. CD4⁺ and CD8⁺ subsets were identified by commercially available specific antibody conjugates.

soluble human TNFR2 [14] = molecular target: T1, soluble human TNFR2; test: competition ELISA: plate-bound soluble human TNFR2, competitor biotinylated TNFα, streptavidin-HRP, A450
Description: as §5

B1: SBT-001 (antibody, V domains shown)
VH: EVQLQQSGAELVKPGASVKISCKASGYTFTDYNMDWVKQSHGKSLEWIGDINPNYESTSYNQKFKGKATLTVDKSSSTAYMEVRSLTSEDTAVFYCARDKGWYFDVWGAGTTVTVSS
VL: ENVLTQSPAIMSASLGEKVTMSCRASSSVKNMYWYQQKSDASPKLWIYYTSNLAPGVPARFSGSGSGNSYSLTISSMEGEDAATYYCQQFTSSPYTFGGGTKLELK
notes: Parental mouse antibody; also called mouse SBT-001
- IC50 (soluble human TNFR2 [1]): 8.27 nM
- Kd [2]: 2.7 nM
- Kd [3]: 53.1 nM
- IC50 (soluble human TNFR2 [4]): 9.04 nM
- IC50 (µg/mL) (with pre-incubation); rescue of Jurkat H6 cells from 2 ng/mL TNFα, luminescence (human TNFR2 on cells [5]): 3.03 µg/mL
- IC50 (µg/mL) (without pre-incubation); rescue of Jurkat H6 cells from 2 ng/mL TNFα, luminescence (human TNFR2 on cells [5]): 2.53 µg/mL

B2: SBT-003 (antibody, V domains shown)
VH: QIQLVQSGPELKKPGETVKISCKASGYTFTDYSMHWVKQAPGKGLKWMGWINTETGEPTYADDFKGRFAFSSETSTSTAYLQINNLKNDDTTTYFCATYYGSSYVPDYWGQGTSLTVSS
VL: DIVMTQSHKFMSTSVGDRVSITCKASQNVGTAVAWYQHKPGQSPKLLIYWTSSRHTGVPDRFTGSGSGTEFTLTISNVQSEDLADYFCHQYSDYPYTFGGGTKLEIK
notes: Parental mouse antibody; also called mouse SBT-003
- IC50 (soluble human TNFR2 [1]): 8.5 nM
- Kd [6]: 1.2 nM
- Kd [2]: 1.2 nM
- IC50 (soluble human TNFR2 [4]): 10.5 nM

B3: chimeric SBT-004b (antibody, human IgG1, V domains shown)
VH: EVQLQQSGPEVGRPGSSVKISCKASGYTFTDYIMHWVKQSPGQGLEWIGWVDPEYGSTDYAEKFKKKATLTADTSSNTAYIQLSSLTSEDTATYFCARDDGSYSPFDYWGQGVMVTVSS
VL: NIVMTQSPKSMSMSVGERVTLTCKASENVVTYVSWYQQKPEQSPKLLIYGASNRYTGVPDRFTGSGSATDFTLTISSVQAEDLADYHCGQGYSYPYTFGGGTKLEIK
notes: Same heavy chain as chSBT-004 (human IgG1 Fc domain); also called chSBT-004b
- Kd [2]: 2.8 nM
- Kd [3]: 7.9 nM
- IC50 (soluble cynomolgus TNFR2 [7]): 15.1 nM
- Relative IC50 (soluble human TNFR2 [8]): 2.33 nM
- Average Relative IC50 (soluble cynomolgus TNFR2 [9]): 1.56
- Relative IC50 (soluble cynomolgus TNFR2 [10]): 1.57 nM
- Average Relative IC50 (soluble human TNFR2 [11]): 2.93 nM
- % CD4^+ ab^+ Donor 1 [12]: 8%
- % CD4^+ ab^+ Donor 2 [12]: 5.5%
- % CD8^+ ab^+ Donor 1 [12]: 9.2%
- % CD8^+ ab^+ Donor 2 [12]: 11%
- % CD4^+ ab^+ Donor 1 (human TNFR2 on cells [13]): 29.3%
- % CD4^+ ab^+ Donor 2 (human TNFR2 on cells [13]): 18.4%
- % CD8^+ ab^+ Donor 1 (human TNFR2 on cells [13]): 9.1%
- % CD8^+ ab^+ Donor 2 (human TNFR2 on cells [13]): 11.4%
- IC50 (soluble human TNFR2 [14]): 12.9 nM
